Series [1] deals with CD4+ T cells and CD8+ T cells. Put plainly: T cell proliferation assay, monocytes from blood pre- and 1 h post-MPDL3280A infusion. The class given is cell-based, human. To be noted: in the presence of circulating MPDL3280A (1 h post- vs pre-infusion), especially with monocytes primed with IFNγ. As for the experimental part: PBMCs were isolated from patient blood samples immediately pre- and 1 h post-treatment with MPDL3280A, as well as from a normal donor by Ficoll and plated in a density of 4×10^6 cells/ml to a 96-well plate. After 2 h at 37° C. non-adherent cells (lymphocyte portion) were removed by pipetting and remaining adherent cells (monocyte portion) were cultured with or without 250 ng/ml IFNγ. At 24 h, non-adherent lymphocytes were labeled with CFSE. Monocytes (IFNγ treated or untreated) were harvested by 5 mM EDTA treatment and resuspended in fresh medium. Both lymphocytes and monocytes were then plated to a 96-well plate pre-coated with 10 μg/ml OKT3 antibody. Proliferation of CD4+ T cells and CD8+ T cells were monitored at 72 h post-stimulation by CSFE dilution.

In the next series the target is T1, PD-L1 (Homo sapiens, UniProt Q9NZQ7).
T1 construct: their tumor was also tested for PD-L1 expression and found to be positive; endogenous in cells; host or cells: tumour cells and immune cells (macrophages/monocytes) of a patient with metastatic lung adenocarcinoma
T1 sequence (Q9NZQ7 19-290): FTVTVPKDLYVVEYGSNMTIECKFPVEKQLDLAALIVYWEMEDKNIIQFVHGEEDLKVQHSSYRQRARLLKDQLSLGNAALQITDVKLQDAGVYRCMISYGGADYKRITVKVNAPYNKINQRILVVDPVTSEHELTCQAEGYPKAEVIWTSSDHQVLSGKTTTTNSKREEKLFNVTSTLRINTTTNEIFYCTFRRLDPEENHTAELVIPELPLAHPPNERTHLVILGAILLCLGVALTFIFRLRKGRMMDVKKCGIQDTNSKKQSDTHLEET
Put plainly: Phase 1 study of MPDL3280A in a patient with metastatic lung adenocarcinoma. The class given is in vivo. How it is done: The patient also consented to enroll on a phase 1 multicenter open-label dose-escalation study to evaluate the safety, tolerability, and pharmacokinetics of MPDL3280A (DF/HCC Protocol 11-314; NCT#01375842). […] As part of the inclusion criteria, their tumor was also tested for PD-L1 expression and found to be positive. The drug was administered as a single agent at a dose of 20 mg/kg every 3 weeks. […] Tumor response and evaluation was performed by physical examination and serial chest/abdomenipelvic CT scans, and target lesions were evaluated using RECIST criteria. Following treatment discontinuation at 1 year, the patient has continued to be monitored every 3 months by examination and CT scans.
Thus, after a temporary decline, the patient subsequently received sixteen cycles of MPDL3280A over a one-year period. […] They completed one year of therapy per protocol and remained without evidence of disease progression for an additional 12 months. At this point, they began to lose weight again and developed regrowth of the right adrenal mass (FIG. 1D), leading to re-initiation of MPDL3280A therapy.

Series [2] is described as follows: Chemotherapy of the patient before MPDL3280A. The class given is in vivo, human. The note with it: one patient, single cycle. An excerpt: He then developed a perirectal abscess and was switched to dose-reduced carboplatin and pemetrexed, together with bevacizumab for three additional cycles and was transitioned to maintenance pemetrexed and bevacizumab.
Where [3] appears, read: one patient, sixteen cycles over one year.

Turning to “MPDL3280A: an engineered anti-PDL1 antibody (Genentech)”, in series [1], the “T cell activation (proliferation of autologous or allogeneic CD4+/CD8+ T cells)” value is on record as “significantly greater”. The “Time without evidence of disease progression after completing one year of therapy” value with PD-L1 (off therapy) was 12 months. Also, the Tolerability result with PD-L1 (one patient, 20 mg/kg every 3 weeks, 16 cycles) is listed as “tolerated well other than a mild flare of their underlying chronic obstructive pulmonary disease”. For the same substance, the “Tumor response by RECIST criteria” value with PD-L1 (one patient, 20 mg/kg every 3 weeks, sixteen cycles over a one-year period) is on record as “partial response”. Further, in the series with PD-L1 (one patient, FIG. 1 panel C), the “Size of the paratracheal mass on serial chest CT scans” value is reported as “reduction in size”. For the same substance, the “Right adrenal lesion on restaging scans after re-initiation of therapy” value with PD-L1 (one patient, after another 3 months of MPDL3280A) is given as “rapid improvement”. For the same substance, in the series with PD-L1 (setting [3]), the Body weight entry is on record as “return to pre-diagnosis body weight”, the Narcotic pain medication entry is reported as “discontinuation of all narcotic pain medication” and the Symptoms result is listed as “complete resolutions of their symptoms”.
Turning to carboplatin and paclitaxel, in series [2], the Tolerability entry is recorded as “tolerated poorly”.

The values are drawn from patent US20170115291A1, “Activating JAK Kinase Biomarkers Predictive of Anti-Immune Checkpoint Inhibitor Response” (Dana-Farber Cancer Institute, Inc., priority 2014, published 2017).
